From patent US20150087812A1 (Janssen / Centocor, published 2015) come the findings set out here.

Assay [1] addresses T1, recombinant human ATX beta isoform with N-terminal purification tag (human, UniProt Q13822 49-863). Kind of assay: SPR Biacore 3000, His-ATX beta captured on anti-Penta-His, mAb as analyte, bivalent analyte model. As for the experimental part: Affinity measurements using surface plasmon resonance (SPR) were performed using a Biacore 3000 optical biosensor (Biacore) for ATXB3, ATXB6, ATXB8, ATXB9, ATXB13, and ATXB14. A biosensor surface was prepared by coupling anti-Penta-His antibody (Qiagen, Cat No. 34660) to the carboxymethylated dextran surface of a CM-5 chip (Biacore, Cat No. BR-1000-14) using the manufacturer instructions for amine-coupling chemistry. Approximately 15,000 RU (response units) of anti-Penta-His antibody were immobilized in each of four flow cells. The kinetic experiments were performed at 25° C. in running buffer (PBS+0.01% P20+100 ug/ml BSA). Serial dilutions of anti-ATX mAbs (ATXB3, B6, B8, B9, B13, B14) from 900 nM to 0.412 nM were prepared in running buffer. About 80 RU of human ATX beta-His tagged proteins were captured on flow cell 2 of the sensor chip. Flow cell 1 was used as reference surface. Capture of ATX was followed by five minutes injection (association phase) of anti-ATX mAbs at 50 uL/min, followed by 15 minutes of buffer flow (dissociation phase). The chip surface was regenerated by 15 seconds injection of 100 mM H₃PO₄ (Sigma, Cat No. 7961) at 50 uL/min. The collected data were processed using BIAevaluation software, version 3.2 (Biacore). First, double reference subtraction of the data was performed by subtracting the curves generated by buffer injection from the reference-subtracted curves for analyte injections. Then kinetic analysis of the data was performed using the Bivalent Analyte binding model with global fitting. Kd1 (Kₒₙ) was calculated as intrinsic KD with minimum avidity. The result for each mAb was reported in the format of Ka1 (On-rate, Kₒₙ), Kd1 (Off-rate, Koff) and KD1 (Equilibrium dissociation constant). Affinity measurements for ATXB18 were performed on a Proteon XPR36 system (Bio-Rad), using a protocol similar to the one used on the Biacore platform.
The five mAbs with the lowest IC50 values in the inhibition assays as well as ATXB3, a non-neutralizing antibody, were tested for their affinity to the human ATX-beta isoform, as measured by surface plasmon resonance. Due to nonspecific binding of the ATX antigen to the chip surface, these experiments had to be conducted in the reverse format, with ATX immobilized on the chip surface (ligand) and our antibodies in solution (analyte).
A general note: Surface plasmon resonance follows binding to a sensor surface in real time, without labels.

The target in assay [2] is T1, recombinant human ATX beta isoform with …. The assay can be described thus: Fab-His ELISA. As for the experimental part: (§1) Fabs were captured on black MaxiSorp plates (Nunc, Cat. No. 437111) coated with 1 μg/ml sheep anti-human Fd (CH1) antibody (The Binding Site, Cat. No. PC075). Plates were washed and biotinylated human ATX was added to the captured Fabs at 5 nM. Incubation was carried out for 1 hour at room temperature with gentle shaking. Plates were washed, SA-HRP (Invitrogen, Cat. No. 43-4323) was added and chemiluminescent detection carried out.
(§2) Clones with binding above background were sequenced and unique clones identified. […] These clones were identified with binding signal to human ATX at least 6-fold above the background. Table 3 lists the identifier for VH and VL (Peptide ID) and the combination of both (Fab ID) sorted by the Fab ELISA binding data.

Assay [3] has the same target. The assay can be described thus: ELISA, Fab-His captured by anti-Fd, 5 nM biotinylated human ATX beta. Here is the method:
as §1, §2

Assay [4] shares this target. The assay can be described thus: cell-based or functional assay.
For assay [5], the target named is recombinant mouse ATX beta isoform (R&D Systems, Cat No. 6187-EN-010) (mouse, UniProt Q9R1E6 36-862). Kind of assay: cell-based or functional assay.

B1: mAb ATXB3 (antibody, V domains shown)
VH: EVQLVQSGAEVKKPGESLKISCKGSGYSFTSYWIGWVRQMPGKGLEWMGIIYPGDSDTRYSPSFQGQVTISADKSISTAYLQWSSLKASDTAMYYCARPYGTFDYWGQGTLVTVSS
VL: EIVLTQSPATLSLSPGERATLSCRASQSVADSLAWYQQKPGQAPRLLIYKASNRATGIPARFSGSGSGTDFTLTISSLEPEDFAVYYCQQSNGWPRTFGQGTKVEIK
notes: Human IgG1/kappa from Fab F17
Turning to B1, in assay [1], the Kd came to 0.715 nM, the off-rate constant (koff) turned out to be 0.000303 s⁻¹ and the kon is 212000 M⁻¹ s⁻¹.

B2: Fab F40 (VH H32, VL L42) (Fab, V domains shown)
VH: EVQLVQSGGGLVQPGGSLRLSCAASGFTFSSYAMSWVRQAPGKGLEWVSVINSDGSSIYYADSVKGRFTISRDNSKNTLYLQMNSLRAEDTAVYYCAKLEAIDYAWGFDYWGQGTLVTVSS
VL: EIVLTQSPATLSLSPGERATLSCRASQSVADSLAWYQQKPGQAPRLLIYNASNRATGIPARFSGSGSGTDFTLTISSLEPEDFAVYYCQQSFHWPLTFGQGTKVEIK
notes: Soluble Fab-His; converted to mAb B16; the Fab's H32 may differ in FR1
Regarding B2, the fold above background in assay [2] is at least 6 fold. In addition, the “Fab Binding” value in assay [3] is 8.1e+06 relative chemiluminescence units.

B3: Fab F90 (VH H83, VL L83) (Fab, V domains shown)
VH: QVQLVQSGAEVKKPGSSVKVSCKASGGTFSSYAISWVRQAPGQGLEWMGGIIPIFGTANYAQKFQGRVTITADESTSTAYMELSSLRSEDTAVYYCARGEANEVYPGLDYWGQGTLVTVSS
VL: EIVLTQSPGTLSLSPGERATLSCRASQSVSKSALAWYQQKPGQAPRLLIYNASSRATGIPDRFSGSGSGTDFTLTISRLEPEDFAVYYCQQSNKDPLTFGQGTKVEIK
notes: Soluble Fab-His
Take B3: the fold above background in assay [2] is at least 6 fold. The “Fab Binding” value in assay [3] was 1.7e+06 relative chemiluminescence units.

B4: Fab F85 (VH H58, VL L79) (Fab, V domains shown)
VH: QVQLVQSGAEVKKPGSSVKVSCKASGGTFSSYAISWVRQAPGQGLEWMGGIIPIFGTANYAQKFQGRVTITADESTSTAYMELSSLRSEDTAVYYCARDLYGIDIYYALDYWGQGTLVTVSS
VL: EIVLTQSPGTLSLSPGERATLSCRASQSVSSSYLAWYQQKPGQAPRLLIYGASSRATGIPDRFSGSGSGTDFTLTISRLEPEDFAVYYCQQSNTLPLTFGQGTKVEIK
notes: Soluble Fab-His
Regarding B4, the fold above background in assay [2] is at least 6 fold. Also, in assay [3], the “Fab Binding” value is 1.7e+06 relative chemiluminescence units.

B5: Fab F89 (VH H70, VL L82) (Fab, V domains shown)
VH: QVQLVQSGAEVKKPGSSVKVSCKASGGTFSSYAISWVRQAPGQGLEWMGGISPYFGNANYAQKFQGRVTITADESTSTAYMELSSLRSEDTAVYYCARYGDFGGNVFTEFDYWGQGTLVTVSS
VL: EIVLTQSPGTLSLSPGERATLSCRASQSVNNSDLAWYQQKPGQAPRLLIYTASSRATGIPDRFSGSGSGTDFTLTISRLEPEDFAVYYCQQATTVPLTFGQGTKVEIK
notes: Soluble Fab-His; converted to mAb B9
With B5, the fold above background in assay [2] was at least 6 fold. Besides, the “Fab Binding” value in assay [3] was 5.7e+06 relative chemiluminescence units.

B6: Fab F72 (VH H65, VL PH9L1) (Fab, V domains shown)
VH: QVQLVQSGAEVKKPGSSVKVSCKASGGTFSSYAISWVRQAPGQGLEWMGGIIPIFGTANYAQKFQGRVTITADESTSTAYMELSSLRSEDTAVYYCARGDANSIYPLFDYWGQGTLVTVSS
VL: not shown
notes: Soluble Fab-His
B6: in assay [2], the fold above background was at least 6 fold. Also, the “Fab Binding” value in assay [3] was 1.6e+06 relative chemiluminescence units.

B7: mAb ATXB6 (antibody, V domains shown)
VH: QVQLVQSGAEVKKPGSSVKVSCKASGGTFSSYAISWVRQAPGQGLEWMGGIIPIFGTANYAQKFQGRVTITADESTSTAYMELSSLRSEDTAVYYCARDLYIYGDLDYWGQGTLVTVSS
VL: DIQMTQSPSSLSASVGDRVTITCRASQSIGGWLNWYQQKPGKAPKLLIYTASSLQSGVPSRFSGSGSGTDFTLTISSLQPEDFATYYCQQSYTYPITFGQGTKVEIK
notes: Human IgG1/kappa from Fab F73
B7: the “IC50, inhibition of LPC hydrolysis by human ATX beta (1.5 nM), coupled choline oxidation (Amplex Red) assay” value in assay [4] was 1 nM. In assay [5], the “IC50, inhibition of LPC hydrolysis by mouse ATX, coupled choline oxidation (Amplex Red) assay” value worked out at 0.3 nM. In assay [1], the Kd turned out to be 0.329 nM, the koff was 0.000292 s⁻¹ and the kon came to 444000 M⁻¹ s⁻¹.

B8: Fab F117 (VH H110, VL L103) (Fab, V domains shown)
VH: QVQLVQSGAEVKKPGSSVKVSCKASGGTFSSYAISWVRQAPGQGLEWMGGIIPIFGTANYAQKFQGRVTITADESTSTAYMELSSLRSEDTAVYYCARADANQLSGYLDYWGQGTLVTVSS
VL: DIQMTQSPSSLSASVGDRVTITCRASQSIGRSLNWYQQKPGKAPKLLIYAASSLQSGVPSRFSGSGSGTDFTLTISSLQPEDFATYYCQQPFDYPFTFGQGTKVEIK
notes: Soluble Fab-His
Regarding B8, the fold above background in assay [2] was at least 6 fold. In assay [3], the “Fab Binding” value is 1.8e+06 relative chemiluminescence units.

B9: Fab F67 (VH H60, VL L61) (Fab, V domains shown)
VH: QVQLVQSGAEVKKPGSSVKVSCKASGGTFSSYAISWVRQAPGQGLEWMGGIIPIFGTANYAQKFQGRVTITADESTSTAYMELSSLRSEDTAVYYCARIARYARGYMHTFDYWGQGTLVTVSS
VL: DIQMTQSPSSLSASVGDRVTITCRASQSISSYLNWYQQKPGKAPKLLIYAASSLQSGVPSRFSGSGSGTDFTLTISSLQPEDFATYYCQQHLSIPITFGQGTKVEIK
notes: Soluble Fab-His; converted to mAb B10
Regarding B9, in assay [2], the fold above background was at least 6 fold. Also, in assay [3], the “Fab Binding” value was 8.8e+06 relative chemiluminescence units.

B10: mAb ATXB7 (antibody, V domains shown)
VH: QVQLVQSGAEVKKPGSSVKVSCKASGGTFSSYAISWVRQAPGQGLEWMGGIIPIFGTANYAQKFQGRVTITADESTSTAYMELSSLRSEDTAVYYCARPIGTGYYGFFDYWGQGTLVTVSS
VL: DIQMTQSPSSLSASVGDRVTITCRASQSIAKWLNWYQQKPGKAPKLLIYFASSLQSGVPSRFSGSGSGTDFTLTISSLQPEDFATYYCQQSYSTPLTFGQGTKVEIK
Turning to B10, the “IC50, inhibition of LPC hydrolysis by human ATX beta (1.5 nM), coupled choline oxidation (Amplex Red) assay” value in assay [4] amounted to 158 nM. The “IC50, inhibition of LPC hydrolysis by mouse ATX, coupled choline oxidation (Amplex Red) assay” value in assay [5] is 217 nM.

B11: mAb ATXB14 (antibody, V domains shown)
VH: QVQLVQSGAEVKKPGSSVKVSCKASGGTFSSYAISWVRQAPGQGLEWMGGIIPIFGNTNYAQKFQGRVTITADESTSTAYMELSSLRSEDTAVYYCARDISGYGDLDYWGQGTLVTVSS
VL: DIQMTQSPSSLSASVGDRVTITCRASQSIDGWLNWYQQKPGKAPKLLIYAASSLQSGVPSRFSGSGSGTDFTLTISSLQPEDFATYYCQQSYSTPLTFGQGTKVEIK
notes: Human IgG1/kappa from Fab F104
As to B11, in assay [4], the “IC50, inhibition of LPC hydrolysis by human ATX beta (1.5 nM), coupled choline oxidation (Amplex Red) assay” value worked out at 0.8 nM. Besides, the “IC50, inhibition of LPC hydrolysis by mouse ATX, coupled choline oxidation (Amplex Red) assay” value in assay [5] turned out to be 1.5 nM. In assay [1], the Kd stood at 0.369 nM, the koff was determined as 0.000583 s⁻¹ and the kon came to 789000 M⁻¹ s⁻¹.

B12: mAb ATXB8 (antibody, V domains shown)
VH: QVQLVQSGAEVKKPGSSVKVSCKASGGTFSSYAISWVRQAPGQGLEWMGGIIPIFGTANYAQKFQGRVTITADESTSTAYMELSSLRSEDTAVYYCARDSSAYGDFDYWGQGTLVTVSS
VL: DIQMTQSPSSLSASVGDRVTITCRASQSIDGWLNWYQQKPGKAPKLLIYAASSLQSGVPSRFSGSGSGTDFTLTISSLQPEDFATYYCQQSYSTPLTFGQGTKVEIK
notes: Human IgG1/kappa from Fab F96
For the molecule B12, in assay [4], the “IC50, inhibition of LPC hydrolysis by human ATX beta (1.5 nM), coupled choline oxidation (Amplex Red) assay” value stood at 0.7 nM. Moreover, the “IC50, inhibition of LPC hydrolysis by mouse ATX, coupled choline oxidation (Amplex Red) assay” value in assay [5] stood at 0.8 nM. For the same molecule, in assay [1], the Kd came out at 1.77 nM, the koff turned out to be 0.000883 s⁻¹ and the on-rate constant (kon) is 249000 M⁻¹ s⁻¹.

B13: mAb ATXB13 (antibody, V domains shown)
VH: QVQLVQSGAEVKKPGSSVKVSCKASGGTFSSYAISWVRQAPGQGLEWMGGIIPIFGTANYAQKFQGRVTITADESTSTAYMELSSLRSEDTAVYYCARDFSVYGDFDYWGQGTLVTVSS
VL: DIQMTQSPSSLSASVGDRVTITCRASQSIAKWLNWYQQKPGKAPKLLIYAASSLQSGVPSRFSGSGSGTDFTLTISSLQPEDFATYYCQQSYSTPLTFGQGTKVEIK
notes: Human IgG1/kappa from Fab F143
Consider B13, for which the “IC50, inhibition of LPC hydrolysis by human ATX beta (1.5 nM), coupled choline oxidation (Amplex Red) assay” value in assay [4] amounted to 1 nM. Moreover, the “IC50, inhibition of LPC hydrolysis by mouse ATX, coupled choline oxidation (Amplex Red) assay” value in assay [5] came to 0.5 nM. Besides, in assay [1], the Kd stood at 0.6 nM, the off-rate constant (koff) is 0.000329 s⁻¹ and the kon stood at 274000 M⁻¹ s⁻¹.

Usually koff stands for the first-order rate constant of dissociation. A word on the kon: it is the rate constant with which the complex forms.
